From paper PMC6358694, “Crystal structure of the WD40 domain dimer of LRRK2” (Proceedings of the National Academy of Sciences of the …, 2019) come the findings set out here.

Data set [1] concerns the molecule itself. Briefly: SEC; gel filtration chromatography; WT serially diluted from 2 mg/mL to 0.25 mg/mL; mutants compared with WT at matched concentrations by elution position.
Data set [2] deals with the molecule itself. Description: SEC-MALS; MBP-tagged WD40 domain injected at 2 mg/mL; in-line size exclusion column, three-angle light scattering and refractive index detectors.

B1: LRRK2 WD40 domain mutant M2408E (domain or fragment, human, UniProt Q5S007 2142-2527, looked up)
chain: RRILLPKNVIVECMVATHHNSRNASIWLGCGHTDRGQLSFLDLNTEGYTSEEVADSRILCLALVHLPVEKESWIVSGTQSGTLLVINTEDGKKRHTLEKMTDSVTCLYCNSFSKQSKQKNFLLVGTADGKLAIFEDKTVKLKGAAPLKILNIGNVSTPLMCLSESTNSTERNVMWGGCGTKIFSFSNDFTIQKLIETRTSQLFSYAAFSDSNIITVVVDTALYIAKQNSPVVEVWDKKTEKLCGLIDCVHFLREVMVKENKESKHKESYSGRVKTLCLQKNTALWIGTGGGHILLLDLSTRRLIRVIYNFCNSVRVMMTAQLGSLKNVMLVLGYNRKNTEGTQKQKEIQSCLTVWDINLPHEVQNLEKHIEVRKELAEKMRRTSVE
notes: LRRK2, human, WD40 domain, residues 2142-2527, with M2408E; Probably MBP-tagged and from Sf9 as the WT; methods in the SI Appendix; source: purified proteins
Turning to B1, the binding result in data set [1] is given as “binds”.

B2: MBP-tagged LRRK2 WD40 domain, wild type (domain or fragment, human, UniProt Q5S007 2142-2527, looked up)
chain: RRILLPKNVIVECMVATHHNSRNASIWLGCGHTDRGQLSFLDLNTEGYTSEEVADSRILCLALVHLPVEKESWIVSGTQSGTLLVINTEDGKKRHTLEKMTDSVTCLYCNSFSKQSKQKNFLLVGTADGKLAIFEDKTVKLKGAAPLKILNIGNVSTPLMCLSESTNSTERNVMWGGCGTKIFSFSNDFTIQKLIETRTSQLFSYAAFSDSNIITVVVDTALYIAKQNSPVVEVWDKKTEKLCGLIDCVHFLREVMVKENKESKHKMSYSGRVKTLCLQKNTALWIGTGGGHILLLDLSTRRLIRVIYNFCNSVRVMMTAQLGSLKNVMLVLGYNRKNTEGTQKQKEIQSCLTVWDINLPHEVQNLEKHIEVRKELAEKMRRTSVE
notes: leucine-rich repeat kinase 2 (LRRK2), human, WD40 domain, residues 2142-2527; MBP-tagged monomer calculated at about 83 kDa; The tag is named for the MALS runs; also called WT WD40 domain; source: Sf9 insect cells via baculovirus infection, purified to homogeneity
B2: the “stoichiometry N” value in data set [2] was found to be 2.

B3: LRRK2 WD40 domain PD-associated variant Y2189C (domain or fragment, human, UniProt Q5S007 2142-2527, looked up)
chain: RRILLPKNVIVECMVATHHNSRNASIWLGCGHTDRGQLSFLDLNTEGCTSEEVADSRILCLALVHLPVEKESWIVSGTQSGTLLVINTEDGKKRHTLEKMTDSVTCLYCNSFSKQSKQKNFLLVGTADGKLAIFEDKTVKLKGAAPLKILNIGNVSTPLMCLSESTNSTERNVMWGGCGTKIFSFSNDFTIQKLIETRTSQLFSYAAFSDSNIITVVVDTALYIAKQNSPVVEVWDKKTEKLCGLIDCVHFLREVMVKENKESKHKMSYSGRVKTLCLQKNTALWIGTGGGHILLLDLSTRRLIRVIYNFCNSVRVMMTAQLGSLKNVMLVLGYNRKNTEGTQKQKEIQSCLTVWDINLPHEVQNLEKHIEVRKELAEKMRRTSVE
notes: LRRK2, human, WD40 domain, residues 2142-2527, with the PD-associated variant Y2189C; Probably MBP-tagged and from Sf9 as the WT; methods in the SI Appendix; source: purified proteins
Turning to B3, the binding result in data set [1] was “binds”.
